Laboratory results published in patent US20240165282A1, “CONFORMATIONAL CONSTRAINED SOMATOSTATIN RECEPTOR 3 PEPTIDE LIGANDS AND THEIR CONJUGATES AND USES THEREOF” (STARGET PHARMA LTD., priority 2021, published 2024).
*1 amine or outer side, *2 acyl side, *3 side chain or, on linkers, in order; H or OH if unused. Bridges are numbered along the chain shown (N, C = ends). [ ]: non-standard residue; d: D form. The star is where a group is joined. DOTA = O=C(O)CN1CCN(CC(=O)O)CCN(CC(=O)*)CCN(CC(=O)O)CC1; N(2-mercaptoethyl)Gly = O=C(CN(CCS[*:3])[*:1])[*:2]

How the values were obtained:
AGTRL1 (human) = AGTRL1 (human) (UniProt P35414); assay: cell-based or functional assay
OPRM1 (human) = OPRM1 (human) (UniProt P35372); assay: cell-based or functional assay
GLP1R (human) = GLP1R (human) (UniProt P43220); assay: cell-based or functional assay
FSHR (human) = FSHR (human) (UniProt P23945); assay: cell-based or functional assay
Chain of FSHR (human) (P23945 18-695): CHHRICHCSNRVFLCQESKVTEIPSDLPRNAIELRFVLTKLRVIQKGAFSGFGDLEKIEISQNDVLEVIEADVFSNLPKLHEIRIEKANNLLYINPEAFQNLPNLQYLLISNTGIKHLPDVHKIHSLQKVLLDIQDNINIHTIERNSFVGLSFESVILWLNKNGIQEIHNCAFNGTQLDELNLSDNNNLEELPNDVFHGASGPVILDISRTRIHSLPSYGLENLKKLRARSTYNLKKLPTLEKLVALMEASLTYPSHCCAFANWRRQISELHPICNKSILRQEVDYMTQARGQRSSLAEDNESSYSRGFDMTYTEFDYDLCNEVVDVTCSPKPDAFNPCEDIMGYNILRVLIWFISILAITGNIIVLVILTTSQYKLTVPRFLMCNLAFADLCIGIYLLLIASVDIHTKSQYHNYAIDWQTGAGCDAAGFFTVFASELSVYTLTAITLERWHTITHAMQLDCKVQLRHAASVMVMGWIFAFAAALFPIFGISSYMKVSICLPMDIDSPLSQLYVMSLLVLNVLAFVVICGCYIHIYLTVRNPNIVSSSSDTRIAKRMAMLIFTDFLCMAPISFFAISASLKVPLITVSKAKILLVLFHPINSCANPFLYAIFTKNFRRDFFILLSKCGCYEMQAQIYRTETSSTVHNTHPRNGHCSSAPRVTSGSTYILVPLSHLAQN

GPR109B (human) = GPR109B (human) (UniProt P49019); assay: cell-based or functional assay
EDG7 (human) = EDG7 (human) (UniProt Q9UBY5); assay: cell-based or functional assay
AGTR1 (human) = AGTR1 (human) (UniProt P30556); assay: cell-based or functional assay
PTHR1 (human) = PTHR1 (human) (UniProt Q03431); assay: cell-based or functional assay
CCR8 (human) = CCR8 (human) (UniProt P51685); assay: cell-based or functional assay
HRH1 (human) = HRH1 (human) (UniProt P35367); assay: cell-based or functional assay
OPRL1 (human) = OPRL1 (human) (UniProt P41146); assay: cell-based or functional assay
HTR2A (human) = HTR2A (human) (UniProt P28223); assay: cell-based or functional assay
NTSR1 (human) = NTSR1 (human) (UniProt P30989); assay: cell-based or functional assay
CCR10 (human) = CCR10 (human) (UniProt P46092); assay: cell-based or functional assay
OPRK1 (human) = OPRK1 (human) (UniProt P41145); assay: cell-based or functional assay
EDG5 (human) = EDG5 (human) (UniProt O95136); assay: cell-based or functional assay
MC5R (human) = MC5R (human) (UniProt P33032); assay: cell-based or functional assay
(CR)R-RAMP3 (human) = (CR)R-RAMP3 (human) (UniProt P30988); assay: cell-based or functional assay
Chain of (CR)R-RAMP3 (human) (P30988 25-474, chain 1 of 2): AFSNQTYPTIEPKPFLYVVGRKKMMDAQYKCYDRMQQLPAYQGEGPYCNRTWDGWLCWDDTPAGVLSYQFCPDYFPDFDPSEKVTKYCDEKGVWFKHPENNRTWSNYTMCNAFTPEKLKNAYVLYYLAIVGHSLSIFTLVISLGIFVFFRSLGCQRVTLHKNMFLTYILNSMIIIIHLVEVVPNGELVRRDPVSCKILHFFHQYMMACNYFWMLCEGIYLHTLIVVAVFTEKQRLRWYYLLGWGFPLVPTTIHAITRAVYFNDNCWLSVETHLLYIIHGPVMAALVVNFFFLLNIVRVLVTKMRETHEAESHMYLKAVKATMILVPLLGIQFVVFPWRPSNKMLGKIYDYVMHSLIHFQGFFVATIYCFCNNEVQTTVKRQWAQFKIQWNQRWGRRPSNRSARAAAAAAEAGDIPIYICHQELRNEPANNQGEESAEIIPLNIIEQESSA
Chain of (CR)R-RAMP3 (human) (O60896 24-148, chain 2 of 2, further chain): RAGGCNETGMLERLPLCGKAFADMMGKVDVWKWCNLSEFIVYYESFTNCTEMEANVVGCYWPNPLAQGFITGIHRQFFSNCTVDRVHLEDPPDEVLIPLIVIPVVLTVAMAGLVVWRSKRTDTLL

OPRD1 (human) = OPRD1 (human) (UniProt P41143); assay: cell-based or functional assay
CCR2 (human) = CCR2 (human) (UniProt P41597); assay: cell-based or functional assay
Chain of CCR2 (human) (P41597 whole entry): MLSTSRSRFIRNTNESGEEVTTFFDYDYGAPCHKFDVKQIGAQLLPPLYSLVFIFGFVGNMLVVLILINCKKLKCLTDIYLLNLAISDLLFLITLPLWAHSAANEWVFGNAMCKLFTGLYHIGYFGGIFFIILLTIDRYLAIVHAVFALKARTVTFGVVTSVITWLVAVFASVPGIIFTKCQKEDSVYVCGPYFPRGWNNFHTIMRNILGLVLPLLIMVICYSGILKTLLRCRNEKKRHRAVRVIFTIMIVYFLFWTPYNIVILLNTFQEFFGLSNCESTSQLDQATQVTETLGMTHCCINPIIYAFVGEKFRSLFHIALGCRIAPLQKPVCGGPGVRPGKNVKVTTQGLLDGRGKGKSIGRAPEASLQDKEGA

CHRM1 (human) = CHRM1 (human) (UniProt P11229); assay: cell-based or functional assay
GLP2R (human) = GLP2R (human) (UniProt O95838); assay: cell-based or functional assay
P2RY2 (human) = P2RY2 (human) (UniProt P41231); assay: cell-based or functional assay
Chain of P2RY2 (human) (P41231 whole entry): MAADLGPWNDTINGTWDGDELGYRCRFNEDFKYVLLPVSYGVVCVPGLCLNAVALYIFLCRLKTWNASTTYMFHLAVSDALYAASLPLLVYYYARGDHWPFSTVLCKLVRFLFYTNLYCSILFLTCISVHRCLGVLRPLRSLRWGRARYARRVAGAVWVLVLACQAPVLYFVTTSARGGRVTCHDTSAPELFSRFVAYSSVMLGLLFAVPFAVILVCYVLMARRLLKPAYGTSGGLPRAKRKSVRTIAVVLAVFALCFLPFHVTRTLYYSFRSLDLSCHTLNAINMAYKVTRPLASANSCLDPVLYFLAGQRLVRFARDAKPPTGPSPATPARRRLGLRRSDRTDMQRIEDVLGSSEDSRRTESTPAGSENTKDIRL

HTR1F (human) = HTR1F (human) (UniProt P30939); assay: cell-based or functional assay
PTHR2 (human) = PTHR2 (human) (UniProt P49190); assay: cell-based or functional assay
F2R (human) = F2R (human) (UniProt P25116); assay: cell-based or functional assay
MRGPRX1 (human) = MRGPRX1 (human) (UniProt Q96LB2); assay: cell-based or functional assay
HTR1A (human) = HTR1A (human) (UniProt P08908); assay: cell-based or functional assay
C3AR1 (human) = C3AR1 (human) (UniProt Q16581); assay: cell-based or functional assay
Chain of C3AR1 (human) (Q16581 whole entry): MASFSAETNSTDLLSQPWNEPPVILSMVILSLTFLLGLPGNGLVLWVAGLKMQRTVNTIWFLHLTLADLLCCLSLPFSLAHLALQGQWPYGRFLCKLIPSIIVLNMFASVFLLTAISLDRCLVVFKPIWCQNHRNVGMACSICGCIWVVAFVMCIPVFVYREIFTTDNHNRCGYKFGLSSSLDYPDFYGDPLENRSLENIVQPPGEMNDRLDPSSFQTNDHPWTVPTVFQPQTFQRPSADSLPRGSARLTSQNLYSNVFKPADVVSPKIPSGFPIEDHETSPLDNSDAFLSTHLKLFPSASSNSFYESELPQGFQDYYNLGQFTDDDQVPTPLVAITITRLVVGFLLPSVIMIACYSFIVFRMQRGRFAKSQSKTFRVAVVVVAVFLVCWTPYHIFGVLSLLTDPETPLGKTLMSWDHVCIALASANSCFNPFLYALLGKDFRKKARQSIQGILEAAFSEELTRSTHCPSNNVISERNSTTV

LHCGR (human) = LHCGR (human) (UniProt P22888); assay: cell-based or functional assay
F2RL1 (human) = F2RL1 (human) (UniProt P55085); assay: cell-based or functional assay
(CR)L-RAMP3 (human) = (CR)L-RAMP3 (human) (UniProt Q16602); assay: cell-based or functional assay
FPRL1 (human) = FPRL1 (human) (UniProt P25090); assay: cell-based or functional assay
GIPR (human) = GIPR (human) (UniProt P48546); assay: cell-based or functional assay
NPY2R (human) = NPY2R (human) (UniProt P49146); assay: cell-based or functional assay
MTNR1A (human) = MTNR1A (human) (UniProt P48039); assay: cell-based or functional assay
CCKAR (human) = CCKAR (human) (UniProt P32238); assay: cell-based or functional assay
CXCR5 (human) = CXCR5 (human) (UniProt P32302); assay: cell-based or functional assay
Chain of CXCR5 (human) (P32302 whole entry): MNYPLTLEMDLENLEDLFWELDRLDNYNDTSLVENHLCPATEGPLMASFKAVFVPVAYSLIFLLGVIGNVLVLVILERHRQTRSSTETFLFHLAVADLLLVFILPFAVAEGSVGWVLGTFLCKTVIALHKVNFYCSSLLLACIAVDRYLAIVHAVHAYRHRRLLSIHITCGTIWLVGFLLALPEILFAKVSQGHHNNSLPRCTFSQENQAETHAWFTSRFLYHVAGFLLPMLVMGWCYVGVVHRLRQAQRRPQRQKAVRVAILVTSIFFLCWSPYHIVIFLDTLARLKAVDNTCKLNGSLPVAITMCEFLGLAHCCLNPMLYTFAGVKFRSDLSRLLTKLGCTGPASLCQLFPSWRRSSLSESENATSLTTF

DRD3 (human) = DRD3 (human) (UniProt P35462); assay: cell-based or functional assay
CRTH2 (human) = CRTH2 (human) (UniProt Q9Y5Y4); assay: cell-based or functional assay
Chain of CRTH2 (human) (Q9Y5Y4 whole entry): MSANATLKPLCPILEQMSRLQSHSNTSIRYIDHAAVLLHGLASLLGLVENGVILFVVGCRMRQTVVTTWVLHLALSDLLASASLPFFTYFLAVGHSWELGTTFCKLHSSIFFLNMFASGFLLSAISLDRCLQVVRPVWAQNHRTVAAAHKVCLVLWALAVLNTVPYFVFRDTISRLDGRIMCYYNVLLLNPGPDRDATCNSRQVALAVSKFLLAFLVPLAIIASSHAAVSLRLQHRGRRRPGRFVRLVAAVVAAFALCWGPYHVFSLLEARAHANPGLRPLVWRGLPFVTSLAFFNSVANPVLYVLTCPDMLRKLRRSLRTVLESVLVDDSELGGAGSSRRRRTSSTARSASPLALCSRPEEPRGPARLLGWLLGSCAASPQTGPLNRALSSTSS

NMU1R (human) = NMU1R (human) (UniProt Q9HB89); assay: cell-based or functional assay
EDG4 (human) = EDG4 (human) (UniProt Q9HBW0); assay: cell-based or functional assay
CCR3 (human) = CCR3 (human) (UniProt P51677); assay: cell-based or functional assay
ADORA3 (human) = ADORA3 (human) (UniProt P0DMS8); assay: cell-based or functional assay
GPR109A (human) = GPR109A (human) (UniProt Q8TDS4); assay: cell-based or functional assay
P2RY1 (human) = P2RY1 (human) (UniProt P47900); assay: cell-based or functional assay
HRH4 (human) = HRH4 (human) (UniProt Q9H3N8); assay: cell-based or functional assay
Chain of HRH4 (human) (Q9H3N8 whole entry): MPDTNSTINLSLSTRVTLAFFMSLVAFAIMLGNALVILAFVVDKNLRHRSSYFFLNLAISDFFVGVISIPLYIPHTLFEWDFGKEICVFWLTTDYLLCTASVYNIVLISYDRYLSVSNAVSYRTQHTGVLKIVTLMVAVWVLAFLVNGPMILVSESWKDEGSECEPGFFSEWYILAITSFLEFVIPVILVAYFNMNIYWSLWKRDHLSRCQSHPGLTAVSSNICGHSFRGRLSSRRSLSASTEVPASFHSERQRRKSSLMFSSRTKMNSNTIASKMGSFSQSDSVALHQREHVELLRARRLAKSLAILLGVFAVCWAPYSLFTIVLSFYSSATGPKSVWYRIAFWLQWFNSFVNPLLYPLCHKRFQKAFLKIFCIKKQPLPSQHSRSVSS

DRD2L (human) = DRD2L (human) (UniProt P14416); assay: cell-based or functional assay
MC3R (human) = MC3R (human) (UniProt P41968); assay: cell-based or functional assay
FPR1 (human) = FPR1 (human) (UniProt P21462); assay: cell-based or functional assay
[1] = molecular target: human cloned somatostatin receptor 5 (human) (UniProt P35346); assay: cell-based or functional assay
Chain of human cloned somatostatin receptor 5 (human) (P35346 whole entry): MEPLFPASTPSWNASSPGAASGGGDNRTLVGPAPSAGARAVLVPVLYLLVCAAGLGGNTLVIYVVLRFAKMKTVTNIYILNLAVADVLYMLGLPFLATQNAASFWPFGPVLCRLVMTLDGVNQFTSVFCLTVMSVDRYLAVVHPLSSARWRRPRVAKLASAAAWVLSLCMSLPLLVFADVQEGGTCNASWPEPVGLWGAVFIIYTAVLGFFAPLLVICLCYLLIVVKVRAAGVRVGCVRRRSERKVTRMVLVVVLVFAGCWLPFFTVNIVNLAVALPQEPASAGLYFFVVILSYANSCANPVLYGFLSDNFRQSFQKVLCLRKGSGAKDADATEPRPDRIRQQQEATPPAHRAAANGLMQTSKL

[2] = molecular target: human cloned somatostatin receptor 1 (human) (UniProt P30872); assay: 125I-Tyr11-SRIF-14 displacement
Chain of human cloned somatostatin receptor 1 (human) (P30872 whole entry): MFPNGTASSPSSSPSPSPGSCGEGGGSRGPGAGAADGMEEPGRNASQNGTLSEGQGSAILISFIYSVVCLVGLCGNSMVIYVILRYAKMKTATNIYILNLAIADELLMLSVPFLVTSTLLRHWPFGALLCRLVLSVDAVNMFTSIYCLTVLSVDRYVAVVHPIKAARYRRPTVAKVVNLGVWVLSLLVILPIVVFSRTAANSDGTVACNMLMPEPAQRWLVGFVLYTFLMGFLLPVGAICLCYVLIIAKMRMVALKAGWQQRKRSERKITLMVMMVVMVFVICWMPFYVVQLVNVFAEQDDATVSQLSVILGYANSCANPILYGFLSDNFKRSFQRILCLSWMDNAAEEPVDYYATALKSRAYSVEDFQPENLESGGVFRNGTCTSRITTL

[3] = molecular target: human cloned somatostatin receptor 3 (human) (UniProt P32745); assay: 125I-Tyr11-SRIF-14 displacement
[4] = molecular target: human cloned somatostatin receptor 2 (human) (UniProt P30874); assay: 125I-Tyr11-SRIF-14 displacement
Chain of human cloned somatostatin receptor 2 (human) (P30874 whole entry): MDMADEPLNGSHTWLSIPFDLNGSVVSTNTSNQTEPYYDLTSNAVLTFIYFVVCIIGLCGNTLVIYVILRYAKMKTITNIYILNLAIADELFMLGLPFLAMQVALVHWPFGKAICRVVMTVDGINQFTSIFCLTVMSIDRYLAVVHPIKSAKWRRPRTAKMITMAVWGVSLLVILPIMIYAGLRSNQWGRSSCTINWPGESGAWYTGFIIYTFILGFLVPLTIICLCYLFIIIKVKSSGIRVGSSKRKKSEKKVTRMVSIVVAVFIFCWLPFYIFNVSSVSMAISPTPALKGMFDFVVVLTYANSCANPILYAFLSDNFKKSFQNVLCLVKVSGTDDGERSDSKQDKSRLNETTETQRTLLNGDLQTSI

[5] = molecular target: human cloned somatostatin receptor 5 (human) (UniProt P35346); assay: 125I-Tyr11-SRIF-14 displacement

{DOTA}-[dF]RCF[dW]KTF[N(2-mercaptoethyl)Gly]-NH2 (disulfide 3-9; also: Ga complex of DOTA) [SEQ ID NO: 4]
% Activity (agonist mode, 1 µM) (AGTRL1 (human)): -1%
% Activity (agonist mode, 1 µM) (OPRM1 (human)): 1%
% Activity (agonist mode, 1 µM) (GLP1R (human)): 0%
% Activity (agonist mode, 1 µM) (FSHR (human)): 3%
% Activity (agonist mode, 1 µM) (GPR109B (human)): -3%
% Activity (agonist mode, 1 µM) (EDG7 (human)): 0%
% Activity (agonist mode, 1 µM) (AGTR1 (human)): -2%
% Activity (agonist mode, 1 µM) (PTHR1 (human)): 0%
% Activity (agonist mode, 1 µM) (CCR8 (human)): 0%
% Activity (agonist mode, 1 µM) (HRH1 (human)): -1%
% Activity (agonist mode, 1 µM) (OPRL1 (human)): -3%
% Activity (agonist mode, 1 µM) (HTR2A (human)): -1%
% Activity (agonist mode, 1 µM) (NTSR1 (human)): 3%
% Activity (agonist mode, 1 µM) (CCR10 (human)): -2%
% Activity (agonist mode, 1 µM) (OPRK1 (human)): -2%
% Activity (agonist mode, 1 µM) (EDG5 (human)): -2%
% Activity (agonist mode, 1 µM) (MC5R (human)): -5%
% Activity (agonist mode, 1 µM) ((CR)R-RAMP3 (human)): -13%
% Activity (agonist mode, 1 µM) (OPRD1 (human)): -1%
% Activity (agonist mode, 1 µM) (CCR2 (human)): 1%
% Activity (agonist mode, 1 µM) (CHRM1 (human)): -1%
% Activity (agonist mode, 1 µM) (GLP2R (human)): -1%
% Activity (agonist mode, 1 µM) (P2RY2 (human)): 2%
% Activity (agonist mode, 1 µM) (HTR1F (human)): 0%
% Activity (agonist mode, 1 µM) (PTHR2 (human)): 0%
% Activity (agonist mode, 1 µM) (F2R (human)): 1%
% Activity (agonist mode, 1 µM) (MRGPRX1 (human)): 0%
% Activity (agonist mode, 1 µM) (HTR1A (human)): 0%
% Activity (agonist mode, 1 µM) (C3AR1 (human)): 0%
% Activity (agonist mode, 1 µM) (LHCGR (human)): 1%
% Activity (agonist mode, 1 µM) (F2RL1 (human)): -4%
% Activity (agonist mode, 1 µM) ((CR)L-RAMP3 (human)): 0%
% Activity (agonist mode, 1 µM) (FPRL1 (human)): 0%
% Activity (agonist mode, 1 µM) (GIPR (human)): -2%
% Activity (agonist mode, 1 µM) (NPY2R (human)): 1%
% Activity (agonist mode, 1 µM) (MTNR1A (human)): -7%
% Activity (agonist mode, 1 µM) (CCKAR (human)): 0%
% Activity (agonist mode, 1 µM) (CXCR5 (human)): 0%
% Activity (agonist mode, 1 µM) (DRD3 (human)): 9%
% Activity (agonist mode, 1 µM) (CRTH2 (human)): -1%
% Activity (agonist mode, 1 µM) (NMU1R (human)): 1%
% Activity (agonist mode, 1 µM) (EDG4 (human)): 6%
% Activity (agonist mode, 1 µM) (CCR3 (human)): 2%
% Activity (agonist mode, 1 µM) (ADORA3 (human)): -6%
% Activity (agonist mode, 1 µM) (GPR109A (human)): 0%
% Activity (agonist mode, 1 µM) (P2RY1 (human)): -2%
% Activity (agonist mode, 1 µM) (HRH4 (human)): -2%
% Activity (agonist mode, 1 µM) (DRD2L (human)): -1%
% Activity (agonist mode, 1 µM) (MC3R (human)): 0%
% Activity (agonist mode, 1 µM) (FPR1 (human)): -1%
% Activity (agonist mode, 1 µM) [1]: 16%
IC50 [2]: > 1 µM
Ki [2]: 0.88 µM
IC50 [3]: 0.001 µM
IC50 [4]: 0.056 µM
Ki [4]: 0.03 µM
IC50 [5]: 0.14 µM
Ki [5]: 0.078 µM
